The results in this text go back to ChEMBL document CHEMBL1132371, “5-deazafolate analogues with a rotationally restricted glutamate or ornithine side chain: synthesis and binding interaction with folylpolyglutamate synthetase” (J Med Chem, 1999).

The target of series [1] is T1, Folylpolyglutamate synthase, mitochondrial (Homo sapiens, UniProt Q05932).
T1 sequence (Q05932 whole entry): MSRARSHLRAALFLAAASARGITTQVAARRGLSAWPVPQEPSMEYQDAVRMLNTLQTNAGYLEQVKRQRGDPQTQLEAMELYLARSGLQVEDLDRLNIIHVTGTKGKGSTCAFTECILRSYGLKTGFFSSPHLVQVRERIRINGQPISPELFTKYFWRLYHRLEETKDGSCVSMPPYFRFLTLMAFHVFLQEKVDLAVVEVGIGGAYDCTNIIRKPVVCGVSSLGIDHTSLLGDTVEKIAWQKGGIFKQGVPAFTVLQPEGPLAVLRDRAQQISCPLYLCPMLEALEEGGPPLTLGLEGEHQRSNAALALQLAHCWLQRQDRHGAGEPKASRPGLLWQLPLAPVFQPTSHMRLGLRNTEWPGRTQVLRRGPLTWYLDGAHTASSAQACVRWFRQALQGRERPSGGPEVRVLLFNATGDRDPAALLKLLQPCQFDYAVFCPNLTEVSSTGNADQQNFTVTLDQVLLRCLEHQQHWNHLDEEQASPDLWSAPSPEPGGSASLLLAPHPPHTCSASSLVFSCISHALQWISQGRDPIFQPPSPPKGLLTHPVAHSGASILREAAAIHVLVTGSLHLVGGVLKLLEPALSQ
Kind of series: Binding affinity as Competitive substrate in the presence of […] aminopterin towards recombinant Human Folyl-polyglutamate synthase (FPGS).

Compound in series [2]: Nc1nc(O)c2cc(CNc3ccc4c(c3)CN([C@@H](CCC(=O)O)C(=O)O)C4=O)cnc2n1
The experiment in a line: (§1) Binding affinity as Competitive substrate in the presence of 10 uM tetrahydrofolate towards recombinant Human Folyl-polyglutamate synthase (FPGS).

Compound in series [3]: Nc1nc(O)c2c(n1)NCC(CNc1ccc(C(=O)NC(CCC(=O)O)C(=O)O)cc1)C2
Described as §1.

Compound in series [4]: Nc1nc(O)c2c(n1)NCC(CNc1ccc3c(c1)CN([C@@H](CCC(=O)O)C(=O)O)C3=O)C2
The series is described as §1.

For orientation: Ki means the dissociation constant of the complex between target and ligand, obtained from inhibition or displacement. As to `NCCC[C@@H](C(=O)O)N1Cc2cc(NCC3CNc4nc(N)nc(O)c4C3)ccc2C1=O` (stereo not given in full), the Ki in series [1] was 0.2 µM. Same read-out and setting: the same measure for `NCCC[C@@H](C(=O)O)N1Cc2cc(NCc3cnc4nc(N)[nH]c(=O)c4c3)ccc2C1=O`: 110 µM.

B1: Folylpolyglutamate synthase, mitochondrial (Homo sapiens), Q05932 (protein)
chain: MSRARSHLRAALFLAAASARGITTQVAARRGLSAWPVPQEPSMEYQDAVRMLNTLQTNAGYLEQVKRQRGDPQTQLEAMELYLARSGLQVEDLDRLNIIHVTGTKGKGSTCAFTECILRSYGLKTGFFSSPHLVQVRERIRINGQPISPELFTKYFWRLYHRLEETKDGSCVSMPPYFRFLTLMAFHVFLQEKVDLAVVEVGIGGAYDCTNIIRKPVVCGVSSLGIDHTSLLGDTVEKIAWQKGGIFKQGVPAFTVLQPEGPLAVLRDRAQQISCPLYLCPMLEALEEGGPPLTLGLEGEHQRSNAALALQLAHCWLQRQDRHGAGEPKASRPGLLWQLPLAPVFQPTSHMRLGLRNTEWPGRTQVLRRGPLTWYLDGAHTASSAQACVRWFRQALQGRERPSGGPEVRVLLFNATGDRDPAALLKLLQPCQFDYAVFCPNLTEVSSTGNADQQNFTVTLDQVLLRCLEHQQHWNHLDEEQASPDLWSAPSPEPGGSASLLLAPHPPHTCSASSLVFSCISHALQWISQGRDPIFQPPSPPKGLLTHPVAHSGASILREAAAIHVLVTGSLHLVGGVLKLLEPALSQ
What is called Km is the substrate concentration at which the rate is half of its maximum. For the molecule B1, the Km in series [2] came to 2.3 µM; in series [3], 0.26 µM; in series [4], 0.018 µM.
